Source: article PMC3935488
Each block holds one binder with its values, some of them ahead of it.

Columns and labels:
[1] = molecular target: human rod outer segment guanylate cyclase 1 (ROS-GC1), mutant P575L (human) (UniProt Q02846)
[2] = molecular target: human rod outer segment guanylate cyclase 1 (ROS-GC1), wildtype (human) (UniProt Q02846)

- EC50 of guanylate cyclase activation (cGMP produced) with 0–20 μM Ca2+-free, Mg2+-bound GCAP1, HEK cell membranes, 30 min [1]: 3.32 µM
- EC50 of guanylate cyclase activation (cGMP produced) with 0–20 μM Ca2+-free, Mg2+-bound GCAP1, HEK cell membranes, 30 min [2]: 2.93 µM
B1: bovine guanylate cyclase-activating protein 1 (GCAP1), D6S mutant, myristoylated (natural protein)
chain: MGNIMSGKSVEELSSTECHQWYKKFMTECPSGQLTLYEFRQFFGLKNLSPWASQYVEQMFETFDFNKDGYIDFMEYVAALSLVLKGKVEQKLRWYFKLYDVDGNGCIDRDELLTIIRAIRAINPCSDSTMTAEEFTDTVFSKIDVNGDGELSLEEFMEGVQKDQMLLDTLTRSLDLTRIVRRLQNGEQDEEGASGRETEAAEADG
modifications: myristoylated (degree of myristoylation typically higher than 90%)

- EC50 of guanylate cyclase activation (cGMP produced) with 0–20 μM Ca2+-free, Mg2+-bound GCAP2, HEK cell membranes, 30 min [1]: 7.44 µM
- EC50 of guanylate cyclase activation (cGMP produced) with 0–20 μM Ca2+-free, Mg2+-bound GCAP2, HEK cell membranes, 30 min [2]: 8.34 µM
B2: bovine guanylate cyclase-activating protein 2 (GCAP2), myristoylated (natural protein)
chain: MGQQFSWEEAEENGAVGAADAAQLQEWYKKFLEECPSGTLFMHEFKRFFKVPDNEEATQYVEAMFRAFDTNGDNTIDFLEYVAALNLVLRGTLEHKLKWTFKIYDKDRNGCIDRQELLDIVESIYKLKKACSVEVEAEQQGKLLTPEEVVDRIFLLVDENGDGQLSLNEFVEGARRDKWVMKMLQMDLNPSSWISQQRRKSAMF
modifications: myristoylated (degree of myristoylation typically higher than 90%)
